For one substance, binding signal results are on record in US20020086323.

This data set concerns the target T1, LtrA (Lactococcus lactis) (UniProt P0A3U0).
T1 sequence: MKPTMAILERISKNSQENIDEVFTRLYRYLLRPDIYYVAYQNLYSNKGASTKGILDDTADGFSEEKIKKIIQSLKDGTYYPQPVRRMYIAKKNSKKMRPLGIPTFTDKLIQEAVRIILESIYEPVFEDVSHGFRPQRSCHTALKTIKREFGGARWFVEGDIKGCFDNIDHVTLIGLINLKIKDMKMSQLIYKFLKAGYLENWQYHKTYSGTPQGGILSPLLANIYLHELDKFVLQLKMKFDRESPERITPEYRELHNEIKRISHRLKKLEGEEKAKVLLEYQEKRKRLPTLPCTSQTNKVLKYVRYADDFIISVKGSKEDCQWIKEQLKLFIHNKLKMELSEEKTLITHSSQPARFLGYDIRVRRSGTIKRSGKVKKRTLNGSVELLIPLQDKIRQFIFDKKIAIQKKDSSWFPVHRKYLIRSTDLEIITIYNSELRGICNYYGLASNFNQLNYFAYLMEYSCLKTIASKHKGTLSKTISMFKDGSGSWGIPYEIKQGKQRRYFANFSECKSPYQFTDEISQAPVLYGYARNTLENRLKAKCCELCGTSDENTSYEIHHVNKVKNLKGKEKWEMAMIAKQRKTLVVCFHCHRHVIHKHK
The experiment in a line: cleavage_in_vitro.

Take Ll.ltrB intron RNA ; ltrB +2 to +5 TGCG: the binding signal was < 10 % of WT.
